Values of other authors as cited in US6126956A, “Subcutaneous implant” (priority 1998, dated 2000).
Like-named read-outs stand apart in the source and are kept apart here.

Conditions: coated EVA with hole in one face, or coated hemisphere with exposed cavity

Substance | release kinetics from prior polymer devices | release kinetics from prior polymer devices (listed as insulin)
albumin | zero order kinetics | –
Insulin | near constant release rates | zero order kinetics
